Laboratory results: patent US20070243194A1

How the values were obtained:
[1] = target: hIGF-1R-Fc mutant SD019 (A739W_I741F) (human) (UniProt P08069); test: SPR, Fab on receptor-Fc held on M13-C06 chip
[2] = target: hIGF-1R-Fc mutant SD008 (S258F) (human) (UniProt P08069); test: SPR, Fab on receptor-Fc held on M13-C06 chip
hIGF-1R-Fc mutant SD008 (S258F) (human), sequence (P08069 31-933, stated change not applied): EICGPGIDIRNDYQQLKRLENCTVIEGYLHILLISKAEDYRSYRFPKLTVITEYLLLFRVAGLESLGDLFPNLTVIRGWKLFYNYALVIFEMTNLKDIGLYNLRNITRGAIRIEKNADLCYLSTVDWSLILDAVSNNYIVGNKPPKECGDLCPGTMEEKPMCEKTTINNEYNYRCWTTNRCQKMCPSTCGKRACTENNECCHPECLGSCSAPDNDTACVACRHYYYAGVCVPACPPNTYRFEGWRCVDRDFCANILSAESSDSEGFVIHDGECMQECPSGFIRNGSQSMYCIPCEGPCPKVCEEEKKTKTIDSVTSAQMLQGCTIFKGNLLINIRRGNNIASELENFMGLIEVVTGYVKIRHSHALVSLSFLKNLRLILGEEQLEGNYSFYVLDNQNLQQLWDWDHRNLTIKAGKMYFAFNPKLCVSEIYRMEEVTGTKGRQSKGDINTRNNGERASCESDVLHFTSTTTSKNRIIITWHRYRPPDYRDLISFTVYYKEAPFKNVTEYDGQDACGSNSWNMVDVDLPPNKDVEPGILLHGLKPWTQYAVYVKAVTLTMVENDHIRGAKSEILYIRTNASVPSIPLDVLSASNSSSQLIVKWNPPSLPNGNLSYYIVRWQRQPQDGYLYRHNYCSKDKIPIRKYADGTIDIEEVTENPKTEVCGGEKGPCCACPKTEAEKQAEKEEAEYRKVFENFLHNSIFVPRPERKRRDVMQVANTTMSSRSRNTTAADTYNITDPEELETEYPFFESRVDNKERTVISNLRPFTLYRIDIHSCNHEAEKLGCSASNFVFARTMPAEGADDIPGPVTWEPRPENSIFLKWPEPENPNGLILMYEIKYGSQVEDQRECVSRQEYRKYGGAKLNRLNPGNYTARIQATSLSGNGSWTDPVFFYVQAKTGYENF

hIGF-1R-Fc mutant SD019 (A739W_I741F) (human), sequence (P08069 31-933, stated change not applied): as above

B1: M13-C06 Fab (Fab, V domains shown)
VH: EVQLLESGGGLVQPGGSLRLSCAASGFTFSIYRMQWVRQAPGKGLEWVSGISPSGGTTWYADSVKGRFTISRDNSKNTLYLQMNSLRAEDTAVYYCARWSGGSGYAFDIWGQGTMVTVSS
VL: DIQMTQSPLSLSASVGDRVTITCQASRDIRNYLNWYQQKPGKAPKLLIYDASSLQTGVPSRFGGSGSGTDFSFTIGSLQPEDIATYYCQQFDSLPHTFGQGTKLEIK
A Biacore Relative RUmax [1] of 1.9 and a Biacore Relative RUmax [2] of 1.5 were found for B1 in this work.
